{
  "source": "the RNAGym collection of RNA variant scans (doi:10.1093/molbev/msab373)",
  "parents": {"B1": {"name": "Azoarcus group I ribozyme (parent)", "chain": "GUGCCUUGCGCCGGGAAACCACGCAAGGGAUGGUGUCAAAUUCGGCGAAACCUAAGCGCCCGCCCGGGCGUAUGGCAACGCCGAGCCAAGCUUCGGCGCCUGCGCCGAUGAAGGUGUAGAGACUAGACGGCACCCACCUAAGGCAAACGCUAUGGUGAAGGCAUAGUCCAGGGAGUGGCGAAAGUCACACAAACCGG"}},
  "data": [
    {"variants_of": "B1", "test": "reverse-splicing fitness (ratio to wild type); higher = more active; in vitro selection; Mg2+ level not given", "in_short": "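An in vitro group I ribozyme library with randomized positions was T7-transcribed and gel-purified. In triplicate, 10 pmol RNA in EPPS pH 7.5 was reacted with 50 pmoles of a 30-nt RNA substrate for 1 h at 37 °C across several added MgCl2 levels (1–48 mM), then stopped with EDTA. Products were reverse transcribed from a substrate-complementary primer, PCR-amplified and sequenced (HiSeq 4000). Fitness is a variant's read proportion after selection over that before, normalised to wild type.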", "values": [
      {"variant": "GUGCCUUGCGCCGGGAAACCACGCAAGGGAUGGUGUCAAAUUCGGCGAAACCUAAGCGCCCGCCCGGGCGUAUGGCAACGCCGAGCCAAGCUUCGGCGCCUGCGCCGAUGGAGGUGUAGUGACUAGACGGCACCCACCUAAGGCAAACGUUAUGGUGAAGGCAUAGUCGAGGGAGGGGCGAAAGUCACACAAACCGG", "note": "[A111G A120U C150U C169G U176G]", "reverse-splicing fitness": 0.00215},
      {"variant": "GUGCCUUGCGCCGGGAAACCACGCAAGGGAUGGUGUCAAAUUCGGCGAAACCUAAGCGCCCGCCCGGGCGUAUGGCAACGCCGAGCCAAGCUUCGGCGCCUGCGCCGAUGGAGGUGUAGUGACUAGACGGCACCCACCUAAGGCAAACGUUAUGGUGAAGGCAUAGUCGAGGGAGAGGCGAAAGUCACACAAACCGG", "note": "[A111G A120U C150U C169G U176A]", "reverse-splicing fitness": 0.0102},
      {"variant": "GUGCCUUGCGCCGGGAAACCACGCAAGGGAUGGUGUCAAAUUCGGCGAAACCUAAGCGCCCGCCCGGGCGUAUGGCAACGCCGAGCCAAGCUUCGGCGCCUGCGCCGAUGGAGGUGUAGUGACUAGACGGCACCCACCUAAGGCAAACGUUAUGGUGAAGGCAUAGUCGAGGGAGCGGCGAAAGUCACACAAACCGG", "note": "[A111G A120U C150U C169G U176C]", "reverse-splicing fitness": 0.0106},
      {"variant": "GUGCCUUGCGCCGGGAAACCACGCAAGGGAUGGUGUCAAAUUCGGCGAAACCUAAGCGCCCGCCCGGGCGUAUGGCAACGCCGAGCCAAGCUUCGGCGCCUGCGCCGAUGGAGGUGUAGUGACUAGACGGCACCCACCUAAGGCAAACGGUAUGGUGAAGGCAUAGUCAAGGGAGUGGCGAAAGUCACACAAACCGG", "note": "[A111G A120U C150G C169A]", "reverse-splicing fitness": 0.00729},
      {"variant": "GUGCCUUGCGCCGGGAAACCACGCAAGGGAUGGUGUCAAAUUCGGCGAAACCUAAGCGCCCGCCCGGGCGUAUGGCAACGCCGAGCCAAGCUUCGGCGCCUGCGCCGAUGGAGGUGUAGUGACUAGACGGCACCCACCUAAGGCAAACGGUAUGGUGAAGGCAUAGUCGAGGGAGUGGCGAAAGUCACACAAACCGG", "note": "[A111G A120U C150G C169G]", "reverse-splicing fitness": 0.0111},
      {"variant": "GUGCCUUGCGCCGGGAAACCACGCAAGGGAUGGUGUCAAAUUCGGCGAAACCUAAGCGCCCGCCCGGGCGUAUGGCAACGCCGAGCCAAGCUUCGGCGCCUGCGCCGAUGGAGGUGUAGUGACUAGACGGCACCCACCUAAGGCAAACGGUAUGGUGAAGGCAUAGUCUAGGGAGUGGCGAAAGUCACACAAACCGG", "note": "[A111G A120U C150G C169U]", "reverse-splicing fitness": 0.0103},
      {"variant": "GUGCCUUGCGCCGGGAAACCACGCAAGGGAUGGUGUCAAAUUCGGCGAAACCUAAGCGCCCGCCCGGGCGUAUGGCAACGCCGAGCCAAGCUUCGGCGCCUGCGCCGAUGGAGGUGUAGUGACUAGACGGCACCCACCUAAGGCAAACGUUAUGGUGAAGGCAUAGUCGAGGGAGUGGCGAAAGUCACACAAACCGG", "note": "[A111G A120U C150U C169G]", "reverse-splicing fitness": 0.0472},
      {"variant": "GUGCCUUGCGCCGGGAAACCACGCAAGGGAUGGUGUCAAAUUCGGCGAAACCUAAGCGCCCGCCCGGGCGUAUGGCAACGCCGAGCCAAGCUUCGGCGCCUGCGCCGAUGGAGGUGUAGUGACUAGACGGCACCCACCUAAGGCAAACGUUAUGGUGAAGGCAUAGUCAAGGGAGUGGCGAAAGUCACACAAACCGG", "note": "[A111G A120U C150U C169A]", "reverse-splicing fitness": 0.00587},
      {"variant": "GUGCCUUGCGCCGGGAAACCACGCAAGGGAUGGUGUCAAAUUCGGCGAAACCUAAGCGCCCGCCCGGGCGUAUGGCAACGCCGAGCCAAGCUUCGGCGCCUGCGCCGAUGGAGGUGUAGUGACUAGACGGCACCCACCUAAGGCAAACGGUAUGGUGAAGGCAUAGUCUAGGGAGGGGCGAAAGUCACACAAACCGG", "note": "[A111G A120U C150G C169U U176G]", "reverse-splicing fitness": 0.00256},
      {"variant": "GUGCCUUGCGCCGGGAAACCACGCAAGGGAUGGUGUCAAAUUCGGCGAAACCUAAGCGCCCGCCCGGGCGUAUGGCAACGCCGAGCCAAGCUUCGGCGCCUGCGCCGAUGGAGGUGUAGUGACUAGACGGCACCCACCUAAGGCAAACGGUAUGGUGAAGGCAUAGUCUAGGGAGCGGCGAAAGUCACACAAACCGG", "note": "[A111G A120U C150G C169U U176C]", "reverse-splicing fitness": 0.00437},
      {"variant": "GUGCCUUGCGCCGGGAAACCACGCAAGGGAUGGUGUCAAAUUCGGCGAAACCUAAGCGCCCGCCCGGGCGUAUGGCAACGCCGAGCCAAGCUUCGGCGCCUGCGCCGAUGGAGGUGUAGUGACUAGACGGCACCCACCUAAGGCAAACGGUAUGGUGAAGGCAUAGUCUAGGGAGAGGCGAAAGUCACACAAACCGG", "note": "[A111G A120U C150G C169U U176A]", "reverse-splicing fitness": 0.00346},
      {"variant": "GUGCCUUGCGCCGGGAAACCACGCAAGGGAUGGUGUCAAAUUCGGCGAAACCUAAGCGCCCGCCCGGGCGUAUGGCAACGCCGAGCCAAGCUUCGGCGCCUGCGCCGAUGGAGGUGUAGUGACUAGACGGCACCCACCUAAGGCAAACGGUAUGGUGAAGGCAUAGUCCAGGGAGGGGCGAAAGUCACACAAACCGG", "note": "[A111G A120U C150G U176G]", "reverse-splicing fitness": 0.00318},
      {"variant": "GUGCCUUGCGCCGGGAAACCACGCAAGGGAUGGUGUCAAAUUCGGCGAAACCUAAGCGCCCGCCCGGGCGUAUGGCAACGCCGAGCCAAGCUUCGGCGCCUGCGCCGAUGGAGGUGUAGUGACUAGACGGCACCCACCUAAGGCAAACGGUAUGGUGAAGGCAUAGUCCAGGGAGAGGCGAAAGUCACACAAACCGG", "note": "[A111G A120U C150G U176A]", "reverse-splicing fitness": 0.0102},
      {"variant": "GUGCCUUGCGCCGGGAAACCACGCAAGGGAUGGUGUCAAAUUCGGCGAAACCUAAGCGCCCGCCCGGGCGUAUGGCAACGCCGAGCCAAGCUUCGGCGCCUGCGCCGAUGGAGGUGUAGUGACUAGACGGCACCCACCUAAGGCAAACGGUAUGGUGAAGGCAUAGUCCAGGGAGCGGCGAAAGUCACACAAACCGG", "note": "[A111G A120U C150G U176C]", "reverse-splicing fitness": 0.0248},
      {"variant": "GUGCCUUGCGCCGGGAAACCACGCAAGGGAUGGUGUCAAAUUCGGCGAAACCUAAGCGCCCGCCCGGGCGUAUGGCAACGCCGAGCCAAGCUUCGGCGCCUGCGCCGAUGGAGGUGUAGUGACUAGACGGCACCCACCUAAGGCAAACGGUAUGGUGAAGGCAUAGUCCAGGGAGUGGCGAAAGUCACACAAACCGG", "note": "[A111G A120U C150G]", "reverse-splicing fitness": 0.0688}
    ]}
  ]
}
